According to patent EP3689907A1:
Where a chain is given by its changes, count along the chain named. One block for each binder: values may come before it.

Legend:
[1] = molecular target: human IL-17A (human) (UniProt Q16552); experiment: cell-based or functional assay
[2] = molecular target: human IL-17A (human) (UniProt Q16552); experiment: SPR (Biacore T200), direct setup: IL-17A amine-coupled to CM5 chip, scFv as analyte
[3] = molecular target: human IL-17A (human) (UniProt Q16552); experiment: IL-17A/IL-17RA competitive ELISA: biotinylated hIL-17A preincubated with scFv, binding to coated hIL-17RA
[4] = molecular target: human IL-17A (human) (UniProt Q16552); experiment: SPR (Biacore T200), capture setup: biotinylated human IL-17A captured with Biotin-CAPture kit, scFv as analyte
[5] = molecular target: human IL-17A (human) (UniProt Q16552); experiment: IL-17A/IL-17RA competitive ELISA: biotinylated hIL-17A preincubated with scFv, binding to coated hIL-17RA; reference secukinumab

Neutralization of IL17A in HT-29 assay, rel. IC50* (IC50, secukinumab/IC50, Test Sample) [1]: 196 | Potency in HT-29 assay, IC50 [ng/mL] [1]: 0.13 ng/mL | Potency in HT-29 assay, rel. IC50* (IC50, secukinumab/IC50, Test Sample) [1]: 196 | Kd [2]: 37.6 pM | koff [2]: 4.07e-05 s⁻¹ | kon [2]: 1.08e+06 M⁻¹ s⁻¹ | IC50 [3]: 0.9 ng/mL | Kd [4]: 367 pM | koff [4]: 0.000142 s⁻¹ | kon [4]: 387000 M⁻¹ s⁻¹ | rel. IC50 (IC50, secukinumab/IC50, Test Sample) [5]: 40.9
B1: PRO592 (scFv)
scFv: DIQMTQSPSSLSASVGDRVTITCQASESIYRYLSWYQQKPGKAPKLLIYLASTLTSGVPSRFSGSGSGTDFTLTISSLQPEDFATYYCQSNFGTASTTYYNTFGGGTKLTVLGGGGGSGGGGSGGGGSGGGGSEVQLVESGGGLVQPGGSLTLSCAASGFSFSGFYYMCWVRQAPGKGLEWIGCIDTGDGTTYYASWAKGRFTISRDNSKNTVYLQMNSLRAEDTAVYYCARDAAYGGYAYPAHGMDLWGPGTLVTVSS

Neutralization of IL17A in HT-29 assay, rel. IC50* (IC50, secukinumab/IC50, Test Sample) [1]: 191 | Potency in HT-29 assay, IC50 [ng/mL] [1]: 0.1 ng/mL | Potency in HT-29 assay, rel. IC50* (IC50, secukinumab/IC50, Test Sample) [1]: 191 | Kd [2]: 40.3 pM | koff [2]: 4.55e-05 s⁻¹ | kon [2]: 1.13e+06 M⁻¹ s⁻¹ | IC50 [3]: 1.8 ng/mL | Kd [4]: 119 pM | koff [4]: 0.000144 s⁻¹ | kon [4]: 1.21e+06 M⁻¹ s⁻¹ | rel. IC50 (IC50, secukinumab/IC50, Test Sample) [5]: 22.9
B2: PRO571 (scFv)
scFv: B1 scFv with T152R, P251Q
